Source: paper PMC3545015

T1: Pot1pC (198-339 V199D) (Schizosaccharomyces pombe, UniProt O13988 198-339, V199D)
T1 sequence: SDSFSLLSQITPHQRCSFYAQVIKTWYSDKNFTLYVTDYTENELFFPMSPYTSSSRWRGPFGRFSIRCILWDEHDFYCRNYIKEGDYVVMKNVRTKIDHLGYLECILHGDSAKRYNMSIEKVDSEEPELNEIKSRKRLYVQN


The binders below were run against T1, Pot1pC (198-339 V199D) (assay: ITC).

Going from GGTTAGGGT (ssDNA) [C6G] to GGTTTCGGT (ssDNA) [A5T], the Kd rises from 6 nM to 63 nM (10-fold).

GGTTACGCT (ssDNA) [G8C] and GGTTACGGT (ssDNA) [9mer] are within 1.5-fold of each other in Kd: 22 nM for the first, 24 nM for the second.

Going from GGATACGGT (ssDNA) [T3A] to GGTAACGGT (ssDNA) [T4A], the Kd falls from 37 nM to 21 nM (1.8-fold).

Each binder was assayed against T1, Pot1pC (198-339 V199D) (assay: X-ray crystal structure).

GCTTACGGT (ssDNA) [G2C]: binds.
